The source of these data is publication PMC9877181.

Usually Km stands for the substrate concentration at which the rate is half of its maximum.

For the series, the system named is CCCC(=O)Oc1ccc([N+](=O)[O-])cc1. Put plainly: purified protein. The following applies: 50 mM Tris-HCl pH 8, 10 μM enzyme, no α-CD.

Take EstG (Caulobacter vibrioides NA1000): the Michaelis-Menten constant (Km) turned out to be 11.2 mM.
